The source of these data is PMC314469, “Protein Interaction Networks by Proteome Peptide Scanning” (PLoS Biology, 2004).

What all share (assay): SPOT array
For assay [1], the target named is T1, Yhr016c SH3 (YSC84_YEAST), P32793.
T1 chain: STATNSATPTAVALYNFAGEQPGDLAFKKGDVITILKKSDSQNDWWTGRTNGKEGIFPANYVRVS

The target of assay [2] is T2, Yfr024 SH3 (LSB3_YEAST), P43603.
T2 chain: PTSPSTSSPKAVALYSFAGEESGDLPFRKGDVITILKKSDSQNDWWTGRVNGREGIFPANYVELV

Assay [3] deals with T3, Rvs167 SH3 (RV167_YEAST), P39743.
T3 chain: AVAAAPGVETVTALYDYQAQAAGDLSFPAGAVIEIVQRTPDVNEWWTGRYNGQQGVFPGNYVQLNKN

Assay [4] deals with T4, Boi1 SH3 (BOI1_YEAST), P38041.
T4 chain: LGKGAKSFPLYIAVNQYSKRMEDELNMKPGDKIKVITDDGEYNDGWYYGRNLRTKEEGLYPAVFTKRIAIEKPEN

Assay [5] deals with T5, Boi2 SH3 (BOI2_YEAST), P39969.
T5 chain: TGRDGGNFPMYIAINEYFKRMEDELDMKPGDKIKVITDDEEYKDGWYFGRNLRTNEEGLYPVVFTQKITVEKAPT

For SSLPSPPAKKSATS [YOL006C 72-85], the normalised SPOT signal, Boehringer light units (BLU); mean over the file's lines of this peptide in assay [1] was 61.3; in assay [2], 300; in assay [3], 40.7; in assay [4] it was 66.2; in assay [5], 16.7.

For the molecule SSIPPNPGKTAKPI [YBR198C 108-121], the normalised SPOT signal, Boehringer light units (BLU); mean over the file's lines of this peptide is 429 in assay [1]; 135 in assay [2]; 56.1 in assay [3]; 71.5 in assay [4]; 42.9 in assay [5].

For SSMPNSPKKPVDSL [YDL117W 117-130], the normalised SPOT signal, Boehringer light units (BLU); mean over the file's lines of this peptide was 108 in assay [1]; 902 in assay [2]; 335 in assay [3]; 78.9 in assay [4]; 90.7 in assay [5].

With SSPPPLPTRRDHIK [YPR171W 184-197], the normalised SPOT signal, Boehringer light units (BLU); mean over the file's lines of this peptide in assay [1] is 117000; in assay [2] it was 35200; in assay [3] it was 33600; in assay [4], 56800; in assay [5], 361.

As for SSNPDDPIRVTTPM [YOL004W 293-306], the normalised SPOT signal, Boehringer light units (BLU); mean over the file's lines of this peptide in assay [1] was found to be 282; in assay [2] it was 85; in assay [3], 20.9; in assay [4] it was 25.6; in assay [5], 75.1.

Consider SSLPLGPIKERSKQ [YMR012W 146-159], for which the normalised SPOT signal, Boehringer light units (BLU); mean over the file's lines of this peptide in assay [1] is -0; in assay [2], 78; in assay [3], 15.4; in assay [4], 120; in assay [5] it was 19.3.

Take SSFPTIPLRASSGA [YER006W 232-245]: the normalised SPOT signal, Boehringer light units (BLU); mean over the file's lines of this peptide came out at 777 in assay [1]; 3160 in assay [2]; 786 in assay [3]; 468 in assay [4]; 9.1 in assay [5].

For SSQPRPPPRPQQNP [YGR268C 71-84], the normalised SPOT signal, Boehringer light units (BLU); mean over the file's lines of this peptide in assay [1] worked out at 2040; in assay [2] it was 8620; in assay [3], 956; in assay [4] it was 69.2; in assay [5] it was 5.7.
